These substances were tested against T1, mouse IFNAR2 (mouse) (UniProt O35664) (assay: AlphaSeq).
T1 sequence: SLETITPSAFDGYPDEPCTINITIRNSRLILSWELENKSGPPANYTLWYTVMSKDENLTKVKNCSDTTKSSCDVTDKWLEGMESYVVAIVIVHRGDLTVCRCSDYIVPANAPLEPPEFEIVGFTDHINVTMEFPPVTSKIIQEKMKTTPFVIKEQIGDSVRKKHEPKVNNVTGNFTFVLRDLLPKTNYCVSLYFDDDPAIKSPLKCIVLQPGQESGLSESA
“IFNA2b_L49P_A168K (from UniProt P01563 24-188) (ligand)” gave an apparent Kd (pooled screen) of 461 nM.
“IFNA2b_L49P_A168Q (from UniProt P01563 24-188) (ligand)” showed an apparent Kd (pooled screen) of 321 nM.
“IFNA2b_L49P_E164D (from UniProt P01563 24-188) (ligand)” showed an apparent Kd (pooled screen) of 75 nM.
“IFNA2b_L49P_K135I (from UniProt P01563 24-188) (ligand)” showed an apparent Kd (pooled screen) of 697 nM.
Work on “IFNA2b_L49P_K156T (from UniProt P01563 24-188) (ligand)” yielded an apparent Kd (pooled screen) of 65 nM.
In the case of “IFNA2b_L49P_K187L (from UniProt P01563 24-188) (ligand)”, the apparent Kd (pooled screen) is reported as 85 nM.
For “IFNA2b_L49P_K187R (from UniProt P01563 24-188) (ligand)”, the apparent Kd (pooled screen) was 415 nM.
“IFNA2b_L49P_K187Y (from UniProt P01563 24-188) (ligand)” was tested, and the apparent Kd (pooled screen) was 90 nM.
Substance “IFNA2b_L49P_L176P (from UniProt P01563 24-188) (ligand)” has an apparent Kd (pooled screen) of 69 nM.
With “IFNA2b_L49P_N179G (from UniProt P01563 24-188) (ligand)” the apparent Kd (pooled screen) was 84 nM.
“IFNA2b_L49P_R167A (from UniProt P01563 24-188) (ligand)” gave an apparent Kd (pooled screen) of 2200 nM.
Work on “IFNA2b_L49P_R167H (from UniProt P01563 24-188) (ligand)” yielded an apparent Kd (pooled screen) of 480 nM.
“IFNA2b_L49P_R167K (from UniProt P01563 24-188) (ligand)” gave an apparent Kd (pooled screen) of 77 nM.
In the case of “IFNA2b_L49P_R167M (from UniProt P01563 24-188) (ligand)”, the apparent Kd (pooled screen) is reported as 2380 nM.
For “IFNA2b_L49P_R167S (from UniProt P01563 24-188) (ligand)”, the apparent Kd (pooled screen) was 65800 nM.
Substance “IFNA2b_L49P_R167W (from UniProt P01563 24-188) (ligand)” has an apparent Kd (pooled screen) of 6440 nM.
For “IFNA2b_L49P_R172A (from UniProt P01563 24-188) (ligand)”, the apparent Kd (pooled screen) was 6870 nM.
“IFNA2b_L49P_R172E (from UniProt P01563 24-188) (ligand)” showed an apparent Kd (pooled screen) of 47300 nM.
With “IFNA2b_L49P_R172G (from UniProt P01563 24-188) (ligand)” the apparent Kd (pooled screen) was 2260 nM.
In the case of “IFNA2b_L49P_R172I (from UniProt P01563 24-188) (ligand)”, the apparent Kd (pooled screen) is reported as 310 nM.
“IFNA2b_L49P_R172M (from UniProt P01563 24-188) (ligand)” was tested, and the apparent Kd (pooled screen) was 227 nM.
“IFNA2b_L49P_R172N (from UniProt P01563 24-188) (ligand)” gave an apparent Kd (pooled screen) of 18100 nM.
With “IFNA2b_L49P_R172Q (from UniProt P01563 24-188) (ligand)” the apparent Kd (pooled screen) was 8550 nM.
Work on “IFNA2b_L49P_R172S (from UniProt P01563 24-188) (ligand)” yielded an apparent Kd (pooled screen) of 6190 nM.
Substance “IFNA2b_L49P_R172V (from UniProt P01563 24-188) (ligand)” has an apparent Kd (pooled screen) of 566 nM.
“IFNA2b_L49P_R172W (from UniProt P01563 24-188) (ligand)” showed an apparent Kd (pooled screen) of 9950 nM.
For “IFNA2b_L49P_S159H (from UniProt P01563 24-188) (ligand)”, the apparent Kd (pooled screen) was 65 nM.
Work on “IFNA2b_L49P_S183Y (from UniProt P01563 24-188) (ligand)” yielded an apparent Kd (pooled screen) of 75 nM.
Work on “IFNA2b_L49P_V165D (from UniProt P01563 24-188) (ligand)” yielded an apparent Kd (pooled screen) of 26100 nM.
Work on “IFNA2b_L49P_V165E (from UniProt P01563 24-188) (ligand)” yielded an apparent Kd (pooled screen) of 16400 nM.
“IFNA2b_L49P_V165F (from UniProt P01563 24-188) (ligand)” showed an apparent Kd (pooled screen) of 22900 nM.
Substance “IFNA2b_L49P_V165G (from UniProt P01563 24-188) (ligand)” has an apparent Kd (pooled screen) of 34400 nM.
With “IFNA2b_L49P_V165Q (from UniProt P01563 24-188) (ligand)” the apparent Kd (pooled screen) was 18600 nM.
In the case of “IFNA2b_L49P_V165R (from UniProt P01563 24-188) (ligand)”, the apparent Kd (pooled screen) is reported as 8960 nM.
Work on “IFNA2b_L49P_V165T (from UniProt P01563 24-188) (ligand)” yielded an apparent Kd (pooled screen) of 5950 nM.
In the case of “IFNA2b_M44N_A168H (from UniProt P01563 24-188) (ligand)”, the apparent Kd (pooled screen) is reported as 802 nM.
With “IFNA2b_M44N_A168K (from UniProt P01563 24-188) (ligand)” the apparent Kd (pooled screen) was 23300 nM.
In the case of “IFNA2b_M44N_A168N (from UniProt P01563 24-188) (ligand)”, the apparent Kd (pooled screen) is reported as 1500 nM.
Work on “IFNA2b_M44N_A168Q (from UniProt P01563 24-188) (ligand)” yielded an apparent Kd (pooled screen) of 20000 nM.
Substance “IFNA2b_M44N_A168S (from UniProt P01563 24-188) (ligand)” has an apparent Kd (pooled screen) of 545 nM.
“IFNA2b_M44N_E155R (from UniProt P01563 24-188) (ligand)” gave an apparent Kd (pooled screen) of 7660 nM.
For “IFNA2b_M44N_G125Y (from UniProt P01563 24-188) (ligand)”, the apparent Kd (pooled screen) was 5820 nM.
In the case of “IFNA2b_M44N_K135G (from UniProt P01563 24-188) (ligand)”, the apparent Kd (pooled screen) is reported as 416 nM.
With “IFNA2b_M44N_K156E (from UniProt P01563 24-188) (ligand)” the apparent Kd (pooled screen) was 24400 nM.
“IFNA2b_M44N_K187E (from UniProt P01563 24-188) (ligand)” showed an apparent Kd (pooled screen) of 415 nM.
In the case of “IFNA2b_M44N_L176R (from UniProt P01563 24-188) (ligand)”, the apparent Kd (pooled screen) is reported as 541 nM.
With “IFNA2b_M44N_L184E (from UniProt P01563 24-188) (ligand)” the apparent Kd (pooled screen) was 811 nM.
“IFNA2b_M44N_R167A (from UniProt P01563 24-188) (ligand)” was tested, and the apparent Kd (pooled screen) was 5780 nM.
“IFNA2b_M44N_R167I (from UniProt P01563 24-188) (ligand)” gave an apparent Kd (pooled screen) of 4900 nM.
With “IFNA2b_M44N_R167L (from UniProt P01563 24-188) (ligand)” the apparent Kd (pooled screen) was 2260 nM.
With “IFNA2b_M44N_R167T (from UniProt P01563 24-188) (ligand)” the apparent Kd (pooled screen) was 7010 nM.
“IFNA2b_M44N_R172W (from UniProt P01563 24-188) (ligand)” gave an apparent Kd (pooled screen) of 8770 nM.
“IFNA2b_M44N_S138W (from UniProt P01563 24-188) (ligand)” gave an apparent Kd (pooled screen) of 942 nM.
Substance “IFNA2b_M44N_S159D (from UniProt P01563 24-188) (ligand)” has an apparent Kd (pooled screen) of 34500 nM.
In the case of “IFNA2b_M44N_S175E (from UniProt P01563 24-188) (ligand)”, the apparent Kd (pooled screen) is reported as 484 nM.
“IFNA2b_M44N_S177D (from UniProt P01563 24-188) (ligand)” showed an apparent Kd (pooled screen) of 12300 nM.
With “IFNA2b_M44N_T150G (from UniProt P01563 24-188) (ligand)” the apparent Kd (pooled screen) was 528 nM.

These substances were tested against T1, mouse IFNAR2 (mouse) (assay: AlphaSeq, replicates).
With “IFNA2_L49P (from UniProt P01563 24-188) (ligand)” the apparent Kd (pooled screen) was 20 nM.

The substances below were run against T1, mouse IFNAR2 (mouse) (assay: AlphaSeq (yeast mating, Aga2 display)).
“IFNA2b_L49P_A168D (from UniProt P01563 24-188) (ligand)” showed an apparent Kd (pooled screen) of 586 nM.
With “IFNA2b_L49P_K156Q (from UniProt P01563 24-188) (ligand)” the apparent Kd (pooled screen) was 73 nM.
In the case of “IFNA2b_L49P_L140N (from UniProt P01563 24-188) (ligand)”, the apparent Kd (pooled screen) is reported as 480 nM.
With “IFNA2b_L49P_R167I (from UniProt P01563 24-188) (ligand)” the apparent Kd (pooled screen) was 708 nM.
For “IFNA2b_L49P_R167L (from UniProt P01563 24-188) (ligand)”, the apparent Kd (pooled screen) was 1950 nM.
“IFNA2b_L49P_R167T (from UniProt P01563 24-188) (ligand)” showed an apparent Kd (pooled screen) of 3000 nM.
“IFNA2b_L49P_R167V (from UniProt P01563 24-188) (ligand)” showed an apparent Kd (pooled screen) of 1740 nM.
“IFNA2b_M44N_A120T (from UniProt P01563 24-188) (ligand)” was tested, and the apparent Kd (pooled screen) was 591 nM.
Work on “IFNA2b_M44N_E130M (from UniProt P01563 24-188) (ligand)” yielded an apparent Kd (pooled screen) of 825 nM.
“IFNA2b_M44N_E188R (from UniProt P01563 24-187) (ligand)” showed an apparent Kd (pooled screen) of 520 nM.
“IFNA2b_M44N_V128G (from UniProt P01563 24-188) (ligand)” was tested, and the apparent Kd (pooled screen) was 472 nM.
